How the values were obtained:
[1] = molecular target: T1, FVIII (N8, turoctocog alfa), B domain truncated FVIII (human, UniProt P00451 20-2351); assay: SEC-UV (280 nm), Waters Biosuite 4.6x300 mm, 0.3 ml/min, 155 mM NaCl, 10 mM calcium acetate, 10% isopropanol, 25 °C; FVIII 10 µM, fragment 20 µM, 1:2 mixture
T1 construct: also called F8; F8-500
T1 sequence: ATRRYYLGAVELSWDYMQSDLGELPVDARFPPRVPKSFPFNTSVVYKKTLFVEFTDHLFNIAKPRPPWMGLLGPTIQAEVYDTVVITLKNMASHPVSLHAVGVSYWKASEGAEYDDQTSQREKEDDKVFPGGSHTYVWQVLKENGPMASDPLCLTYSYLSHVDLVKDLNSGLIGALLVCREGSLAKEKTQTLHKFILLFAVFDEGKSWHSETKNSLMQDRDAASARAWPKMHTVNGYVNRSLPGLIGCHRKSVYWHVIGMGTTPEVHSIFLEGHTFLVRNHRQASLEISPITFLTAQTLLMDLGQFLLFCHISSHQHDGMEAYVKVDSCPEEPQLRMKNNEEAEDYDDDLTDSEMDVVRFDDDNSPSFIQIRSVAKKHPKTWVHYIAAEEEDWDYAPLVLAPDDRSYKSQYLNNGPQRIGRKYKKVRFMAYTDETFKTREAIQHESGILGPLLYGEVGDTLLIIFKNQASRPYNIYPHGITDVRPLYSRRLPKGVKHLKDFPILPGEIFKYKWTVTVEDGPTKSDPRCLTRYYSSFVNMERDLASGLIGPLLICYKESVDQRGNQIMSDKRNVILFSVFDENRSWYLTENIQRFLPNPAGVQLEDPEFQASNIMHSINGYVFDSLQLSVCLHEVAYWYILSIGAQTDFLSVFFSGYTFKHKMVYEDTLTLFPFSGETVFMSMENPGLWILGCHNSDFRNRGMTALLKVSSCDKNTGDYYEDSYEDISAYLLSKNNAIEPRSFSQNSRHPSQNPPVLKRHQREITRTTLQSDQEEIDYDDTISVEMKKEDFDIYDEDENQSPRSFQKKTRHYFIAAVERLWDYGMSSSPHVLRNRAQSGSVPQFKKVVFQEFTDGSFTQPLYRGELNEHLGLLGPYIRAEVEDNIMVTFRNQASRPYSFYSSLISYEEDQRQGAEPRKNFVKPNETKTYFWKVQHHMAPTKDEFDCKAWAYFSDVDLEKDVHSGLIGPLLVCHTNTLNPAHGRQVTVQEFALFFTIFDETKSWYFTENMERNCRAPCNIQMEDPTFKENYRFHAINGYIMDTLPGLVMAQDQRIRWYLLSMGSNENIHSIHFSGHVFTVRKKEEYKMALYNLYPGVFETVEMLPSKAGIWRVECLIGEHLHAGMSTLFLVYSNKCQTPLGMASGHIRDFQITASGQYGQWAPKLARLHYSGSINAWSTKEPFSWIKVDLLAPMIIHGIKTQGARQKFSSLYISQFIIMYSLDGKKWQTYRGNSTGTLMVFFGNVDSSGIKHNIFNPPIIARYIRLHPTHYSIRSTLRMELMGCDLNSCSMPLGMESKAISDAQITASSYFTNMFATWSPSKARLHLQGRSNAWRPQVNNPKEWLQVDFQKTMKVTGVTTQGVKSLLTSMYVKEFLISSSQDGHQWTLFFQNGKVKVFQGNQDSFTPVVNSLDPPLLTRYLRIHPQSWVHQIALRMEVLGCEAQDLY
Method: Size-exclusion chromatography was performed on a Waters Biosuite 4.6×300 mm column using a flow rate of 0.3 ml/min and a running buffer of 155 mM NaCl, 10 mM Calciumacetat, 10% Isopropanol at 25° C. The absorbance of the effluent was monitored by a UV detector at 280 nm. SEC-UV characterization were performed of FVIII, TIL′/E′/D3/A1 III, TIL′/E′/D3 II, and 1:2 complexes of FVIII—TIL′/E′/D3/A1 III and of FVIII—TIL′/E′/D3 II. Samples of FVIII 10 μM, TIL′/E′/D3/A1 III 20 μM, TIL′/E′/D3 II 20 μM, and in complex were prepared and 15 μL were loaded on to the column.

[2] = molecular target: T2, FVIII (as used in the competition ELISA of Example 21; form not stated) (UniProt P00451 20-2351, limits assumed); assay: competition ELISA; competitor coated human VWF; FVIII 1 nM pre-incubated with the fragment
T2 sequence (looked up): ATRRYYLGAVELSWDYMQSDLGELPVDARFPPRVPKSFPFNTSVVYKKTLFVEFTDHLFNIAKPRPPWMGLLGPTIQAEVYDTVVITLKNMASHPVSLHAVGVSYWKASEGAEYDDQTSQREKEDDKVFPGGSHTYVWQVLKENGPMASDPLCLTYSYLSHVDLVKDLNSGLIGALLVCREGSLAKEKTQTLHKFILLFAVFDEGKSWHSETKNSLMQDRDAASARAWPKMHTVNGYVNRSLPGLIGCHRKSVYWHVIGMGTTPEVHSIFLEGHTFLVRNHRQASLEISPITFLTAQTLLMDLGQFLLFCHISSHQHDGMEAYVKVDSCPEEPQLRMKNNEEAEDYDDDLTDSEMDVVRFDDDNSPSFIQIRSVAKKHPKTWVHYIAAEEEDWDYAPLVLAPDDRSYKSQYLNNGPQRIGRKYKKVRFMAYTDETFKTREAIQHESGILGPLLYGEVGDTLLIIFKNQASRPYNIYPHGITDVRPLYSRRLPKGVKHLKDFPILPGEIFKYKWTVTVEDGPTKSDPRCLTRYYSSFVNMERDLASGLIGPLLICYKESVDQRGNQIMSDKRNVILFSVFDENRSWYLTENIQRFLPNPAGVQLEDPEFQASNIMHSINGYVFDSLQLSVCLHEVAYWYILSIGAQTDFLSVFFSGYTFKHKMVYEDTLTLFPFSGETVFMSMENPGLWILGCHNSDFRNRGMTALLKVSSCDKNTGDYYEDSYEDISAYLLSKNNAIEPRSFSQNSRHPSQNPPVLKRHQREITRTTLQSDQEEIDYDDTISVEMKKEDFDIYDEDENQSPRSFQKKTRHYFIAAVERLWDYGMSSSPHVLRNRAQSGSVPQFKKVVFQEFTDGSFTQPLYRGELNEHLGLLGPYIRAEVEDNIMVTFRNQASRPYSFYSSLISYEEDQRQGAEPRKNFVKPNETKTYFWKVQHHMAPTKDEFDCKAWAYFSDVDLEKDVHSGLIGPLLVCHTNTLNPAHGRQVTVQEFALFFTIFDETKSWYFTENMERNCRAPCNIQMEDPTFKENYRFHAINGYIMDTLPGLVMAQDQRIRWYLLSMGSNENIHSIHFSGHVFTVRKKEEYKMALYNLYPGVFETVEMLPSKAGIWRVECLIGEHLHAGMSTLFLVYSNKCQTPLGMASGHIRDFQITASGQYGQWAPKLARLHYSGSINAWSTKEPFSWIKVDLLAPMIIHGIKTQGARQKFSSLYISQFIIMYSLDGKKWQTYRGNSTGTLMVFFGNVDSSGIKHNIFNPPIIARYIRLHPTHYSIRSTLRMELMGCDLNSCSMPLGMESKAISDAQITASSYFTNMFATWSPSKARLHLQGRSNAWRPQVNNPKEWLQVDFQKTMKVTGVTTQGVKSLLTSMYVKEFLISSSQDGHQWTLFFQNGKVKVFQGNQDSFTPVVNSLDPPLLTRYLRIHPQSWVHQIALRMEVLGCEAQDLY
Method: In order to investigate the binding of the different VWF fragments to FVIII the following method is used. Briefly, human VWF is coated in a microtiterplate and incubated overnight at 4° C. After blocking, a solution with pre-incubated FVIII (1 nM) and VWF/VWF-fragment is added to the plate, followed by detection with biotinylated anti FVIII antibody and streptavidin-peroxidase S-POD (1:20000). The absorbance is measured at 450/620 nm.

B1: VWF(764-1261)-C1099/1142S-ALA-HPC4 monomer (other)
chain: SLSCRPPMVKLVCPADNLRAEGLECTKTCQNYDLECMSMGCVSGCLCPPGMVRHENRCVALERCPCFHQGKEYAPGETVKIGCNTCVCQDRKWNCTDHVCDATCSTIGMAHYLTFDGLKYLFPGECQYVLVQDYCGSNPGTFRILVGNKGCSHPSVKCKKRVTILVEGGEIELFDGEVNVKRPMKDETHFEVVESGRYIILLLGKALSVVWDRHLSISVVLKQTYQEKVCGLCGNFDGIQNNDLTSSNLQVEEDPVDFGNSWKVSSQCADTRKVPLDSSPATCHNNIMKQTMVDSSCRILTSDVFQDCNKLVDPEPYLDVCIYDTCSCESIGDCASFCDTIAAYAHVCAQHGKVVTWRTATLCPQSCEERNLRENGYESEWRYNSCAPACQVTCQHPEPLACPVQCVEGCHAHCPPGKILDELLQTCVDPEDCPVCEVAGRRFASGKKVTLNPSDPEHCQICHCDVVNLTCEACQEPGGLVVPPTDAPVSPTTLYVEDALAEDQVDPRLIDGK
notes: also called 2309; TIL′/E′/D3 II
[1]
  binding result: binds

B2: VWF(864-1250)-C1099/1142S-ALA-HPC4 monomer (other)
chain: DATCSTIGMAHYLTFDGLKYLFPGECQYVLVQDYCGSNPGTFRILVGNKGCSHPSVKCKKRVTILVEGGEIELFDGEVNVKRPMKDETHFEVVESGRYIILLLGKALSVVWDRHLSISVVLKQTYQEKVCGLCGNFDGIQNNDLTSSNLQVEEDPVDFGNSWKVSSQCADTRKVPLDSSPATCHNNIMKQTMVDSSCRILTSDVFQDCNKLVDPEPYLDVCIYDTCSCESIGDCASFCDTIAAYAHVCAQHGKVVTWRTATLCPQSCEERNLRENGYESEWRYNSCAPACQVTCQHPEPLACPVQCVEGCHAHCPPGKILDELLQTCVDPEDCPVCEVAGRRFASGKKVTLNPSDPEHCQICHCDVVNLTCEACQEPGGLVVPPTDAALAEDQVDPRLIDGK
notes: also called 0001; D3 I
[2]
  IC50: 20000 nM

B3: VWF(764-1198)-C1099/1142S-ALA-HPC4 monomer (other)
chain: SLSCRPPMVKLVCPADNLRAEGLECTKTCQNYDLECMSMGCVSGCLCPPGMVRHENRCVALERCPCFHQGKEYAPGETVKIGCNTCVCQDRKWNCTDHVCDATCSTIGMAHYLTFDGLKYLFPGECQYVLVQDYCGSNPGTFRILVGNKGCSHPSVKCKKRVTILVEGGEIELFDGEVNVKRPMKDETHFEVVESGRYIILLLGKALSVVWDRHLSISVVLKQTYQEKVCGLCGNFDGIQNNDLTSSNLQVEEDPVDFGNSWKVSSQCADTRKVPLDSSPATCHNNIMKQTMVDSSCRILTSDVFQDCNKLVDPEPYLDVCIYDTCSCESIGDCASFCDTIAAYAHVCAQHGKVVTWRTATLCPQSCEERNLRENGYESEWRYNSCAPACQVTCQHPEPLACPVQCVEGCHAHCPPGKILDELLQTCVDPEDCPVALAEDQVDPRLIDGK
notes: also called 0003; TIL′/E′/VWD3/C8-3/TIL-3
[2]
  IC50: 28 nM

B4: VWF(764-1045)-ALA-HPC4 monomer (other)
chain: SLSCRPPMVKLVCPADNLRAEGLECTKTCQNYDLECMSMGCVSGCLCPPGMVRHENRCVALERCPCFHQGKEYAPGETVKIGCNTCVCQDRKWNCTDHVCDATCSTIGMAHYLTFDGLKYLFPGECQYVLVQDYCGSNPGTFRILVGNKGCSHPSVKCKKRVTILVEGGEIELFDGEVNVKRPMKDETHFEVVESGRYIILLLGKALSVVWDRHLSISVVLKQTYQEKVCGLCGNFDGIQNNDLTSSNLQVEEDPVDFGNSWKVSSQCADTRKVPLDSSPATALAEDQVDPRLIDGK
notes: also called TIL′/E′/VWD3 III
[2]
  IC50: 2000 nM
